The assay deals with syntaxin-1, endogenous in cultured mouse neurons (mouse (endogenous in cultured neurons of Syt1 KO mice)) (UniProt O35526). As to the kind of experiment: co-IP.

1 substance from article PMC4496268 can be followed below.

UniProt O35526, sequence (O35526 whole entry): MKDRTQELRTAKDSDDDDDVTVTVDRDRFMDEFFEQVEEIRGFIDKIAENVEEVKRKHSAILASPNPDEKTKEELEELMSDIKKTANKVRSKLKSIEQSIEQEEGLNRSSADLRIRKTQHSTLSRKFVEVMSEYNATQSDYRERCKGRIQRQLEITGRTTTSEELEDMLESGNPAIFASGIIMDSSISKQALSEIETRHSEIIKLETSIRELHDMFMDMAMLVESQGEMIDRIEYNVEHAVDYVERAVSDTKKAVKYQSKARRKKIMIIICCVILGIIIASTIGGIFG

With “Synaptotagmin-1 R322E K325E mutant, expressed in Syt1 KO neurons (from UniProt P21707 1-421) (natural protein)”, the decrease of co-immunoprecipitated Syt1 against WT Syt1 turned out to be 62%.
